# Data from patent US11873336 (TENEOBIO, dated 2024).
# Substitutions are numbered along the chain they refer to.
# T1: human CD22 on CD22-positive Burkitt's lymphoma cells (Daudi, Raji, Ramos) (human, UniProt P20273 20-847)
# T1 construct: whole, on cells; also called CD22+ cells; CD22 positive cells
# T1 sequence (looked up): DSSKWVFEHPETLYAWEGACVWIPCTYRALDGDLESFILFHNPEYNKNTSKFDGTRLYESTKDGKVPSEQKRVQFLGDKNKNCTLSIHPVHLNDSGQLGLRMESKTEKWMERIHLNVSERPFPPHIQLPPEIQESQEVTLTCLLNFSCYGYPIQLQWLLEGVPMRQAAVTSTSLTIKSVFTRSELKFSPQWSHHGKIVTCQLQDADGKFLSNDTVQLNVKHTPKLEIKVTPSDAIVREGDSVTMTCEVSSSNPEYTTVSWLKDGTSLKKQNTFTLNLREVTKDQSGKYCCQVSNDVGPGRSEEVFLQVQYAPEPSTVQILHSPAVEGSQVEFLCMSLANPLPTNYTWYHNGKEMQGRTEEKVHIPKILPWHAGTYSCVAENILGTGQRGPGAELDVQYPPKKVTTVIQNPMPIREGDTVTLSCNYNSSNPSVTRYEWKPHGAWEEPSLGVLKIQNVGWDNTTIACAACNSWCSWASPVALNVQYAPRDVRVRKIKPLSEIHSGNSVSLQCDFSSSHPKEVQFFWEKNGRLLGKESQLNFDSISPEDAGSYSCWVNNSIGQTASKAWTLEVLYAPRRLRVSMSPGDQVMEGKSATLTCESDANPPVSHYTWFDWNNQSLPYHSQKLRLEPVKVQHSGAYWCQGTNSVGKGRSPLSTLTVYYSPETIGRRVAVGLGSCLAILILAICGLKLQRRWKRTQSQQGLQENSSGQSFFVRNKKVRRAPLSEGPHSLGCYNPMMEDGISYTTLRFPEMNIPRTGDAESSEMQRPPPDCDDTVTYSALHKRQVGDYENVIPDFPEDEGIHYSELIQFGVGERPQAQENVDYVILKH
# T2: human CD22 protein (recombinant CD22 extracellular domain) (human, UniProt P20273 20-687)
# T2 construct: extracellular domain; also called SIGLEC-2
# T2 sequence (looked up): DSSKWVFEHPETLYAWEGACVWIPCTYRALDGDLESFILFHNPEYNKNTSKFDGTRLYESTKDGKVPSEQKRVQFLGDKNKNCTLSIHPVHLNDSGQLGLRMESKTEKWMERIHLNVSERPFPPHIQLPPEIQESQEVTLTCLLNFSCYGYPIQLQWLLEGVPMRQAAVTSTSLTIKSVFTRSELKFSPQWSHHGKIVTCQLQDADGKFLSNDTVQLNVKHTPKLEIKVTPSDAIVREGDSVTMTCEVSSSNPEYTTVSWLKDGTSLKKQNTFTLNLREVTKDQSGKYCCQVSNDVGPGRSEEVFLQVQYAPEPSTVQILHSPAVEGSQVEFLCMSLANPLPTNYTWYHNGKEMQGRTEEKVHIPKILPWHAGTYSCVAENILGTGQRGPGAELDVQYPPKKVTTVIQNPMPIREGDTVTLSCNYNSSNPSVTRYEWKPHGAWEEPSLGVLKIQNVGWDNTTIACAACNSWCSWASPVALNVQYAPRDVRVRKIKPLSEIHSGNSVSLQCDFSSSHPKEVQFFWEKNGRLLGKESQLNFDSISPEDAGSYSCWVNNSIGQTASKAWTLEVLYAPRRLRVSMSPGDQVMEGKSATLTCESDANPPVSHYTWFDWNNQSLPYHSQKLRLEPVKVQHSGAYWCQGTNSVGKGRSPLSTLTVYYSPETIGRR
# B1: anti-CD22 heavy chain-only antibody with the VH of SEQ ID NO: 77 (antibody, V domains shown)
# VH: QLQLQESGPGLVKPSETLSLTCTVSGGSISSSSYYWGWFRHPPGKGLDWIGSIHYSGSTYYNPSLKSRVTISVDTSRNQFSLNLSSVTAADTAVYYCTRDDSSNWRSRGQGTLVTVSS
# notes: Heavy chain-only antibody (UniAb), human IgG
# B2: anti-CD22 heavy chain-only antibody with the VH of SEQ ID NO: 81 (antibody, V domains shown)
# VH: QLQLQESGPGLVKPSETLSLTCTVSGGSIISSSYYWGWIRQPPGKGLEWIGSIYYSGSAYYHPSLKSRVTISIDTSKNQFSLKLSSVTAADTAVYYCARDDSSNWRSRGQGTLVTVSS
# notes: as for B1
# B3: anti-CD22 heavy chain-only antibody with the VH of SEQ ID NO: 83 (antibody, V domains shown)
# VH: QLQLQESGPGLVKPSETLSLTCTVSGDSISSGDYYWGWIRQPPGKGLEWIGHIYYSGATYYNPSLKNRVTISVDTSRNQSSLNLSSVTAADTAVYYCTREDSSNWRSRGQGTLVTVSS
# notes: as for B1
# B4: anti-CD22 heavy chain-only antibody with the VH of SEQ ID NO: 82 (antibody, V domains shown)
# VH: B3 VH with D27G, G32S, D33S, H52S, S80F, E100D
# notes: as for B1
# B5: anti-CD22 heavy chain-only antibody with the VH of SEQ ID NO: 84 (antibody, V domains shown)
# VH: B3 VH with D27G, S30N, S31D, G32N, D33S, Y34H, S80F, N104S
# notes: as for B1
# B6: anti-CD22 heavy chain-only antibody with the VH of SEQ ID NO: 55 (antibody, V domains shown)
# VH: QLQLQESGPGLVKPSETLSLTCAVYGGSFSGYYWGWIRQPPGKGLEWIGHIYYSGATYYNPSLKNRVTISVDTSRNQFSLNLSSVTAADTAVYYCTREDSSSWRSRGQGTLVTVSS
# notes: as for B1
# Target: T1, human CD22 on CD22-positive Burkitt's …
# Experiment: cell binding, Daudi cells
# Experimental: Binding to CD22 positive cells was assessed by flow cytometry (Guava easyCyte 8HT, EMD Millipore) using the Daudi cell line (ATCC). Briefly, 100,000 target cells were stained with a dilution series of purified UniAbs™ for 30 minutes at 4° C. Following incubation, the cells were washed twice with flow cytometry buffer (1×PBS, 1% BSA, 0.1% NaN_3) and stained with goat F(ab')2 anti-human IgG conjugated to R-phycoerythrin (PE) (Southern Biotech, cat. #2042-09) to detect cell-bound antibodies. After a 20-minute incubation at 4° C., the cells were washed twice with flow cytometry buffer and then mean fluorescence intensity (MFI) was measured by flow cytometry. EC50 values were calculated using GraphPad Prism 7. Binding to *cynomolgus* CD22 positive cells was determined using the same protocol with the following modifications: the target cells were from CHO cells stably transfected to express the extracellular domain of *cynomolgus* CD22 and each antibody was tested at a single concentration (~1.7 µg/mL) so EC50 values were not calculated.
row,binding result,Binder
1,binds,B1
2,binds,B2
3,binds,B3
4,binds,B4
5,binds,B5
6,binds,B6

# Target: T2, human CD22 protein (recombinant CD22 …)
# Experiment: ELISA on recombinant CD22 extracellular domain and/or cell binding
row,binding result,Binder
1,binds,B1
2,binds,B2
3,binds,B3
4,binds,B4
5,binds,B5
6,binds,B6
